Tests used:
LNCaP-LucPPe cells = assay: LNCaP-LucPPE xenograft in NSG mice, with rechallenge; assay type: in vivo; conditions: for tumor control (bioluminescence imaging, caliper tumor volume), LNCaP-LucPPE xenograft: 1 × 10^6 LNCaP-LucPPe s.c., 17 days later 3 × 10^6 T cells i.v., male NSG mice; for survival, LNCaP-LucPPE xenograft: mouse, in vivo
L363 cells = assay: JNG assay, co-culture with L363 cells; assay type: cell-based; conditions: co-culture with L363
In short: (§1)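 Jurkat-NFAT-GFP (JNG) cells stably expressing SAR constructs via lentiviral transduction and puromycin/blasticidin selection were cocultured with target cells at E:T ~1:2 for ~4–18 h. NFAT-driven GFP was measured by FACS versus parental JNG cells; scores +/- to 5+ denote ~5–50% GFP-positive cells.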

RS;411 = assay: JNG assay, co-culture with RS;411 cells; assay type: cell-based; conditions: co-culture with RS411
In short: as §1

Nalm6 cells = assay: JNG assay, co-culture with Nalm6 cells; assay type: cell-based; conditions: co-culture with Nalm6
In short: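 Jurkat NFAT-GFP reporter cells stably expressing lentivirally delivered SARs (puromycin or blasticidin selection) were cocultured with target cells at E:T ~1:2 for ~4–18 h. GFP was read by FACS, and % GFP+ cells were scored against parental reporter cells (+/-, +, 2+…5+ ≈ 5%, 10%, 20%…50%).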

RAJI-CD19-KO cells = assay: JNG assay, co-culture with RAJI-CD19-KO cells; assay type: cell-based; conditions: co-culture with Raji-CD19-KO
In short: as §1

U266 cells = assay: JNG NFAT-GFP induction on co-culture with U266; assay type: cell-based
RAJI cells = assay: JNG assay, co-culture with RAJI cells; assay type: cell-based; conditions: JNG cells expressing construct, co-culture with Raji
In short: as §1

Molecule	tumor control (bioluminescence imaging, caliper tumor volume), LNCaP-LucPPE xenograft (LNCaP-LucPPe cells)	survival, LNCaP-LucPPE xenograft (LNCaP-LucPPe cells)	NFAT-GFP ASSAY: L363 (L363 cells)	NFAT-GFP ASSAY: RS411 (RS;411)	NFAT-GFP ASSAY: Nalm6 (Nalm6 cells)	NFAT-GFP ASSAY: Raji-CD19-KO (RAJI-CD19-KO cells)	NFAT-GFP ASSAY: U266 (U266 cells)	NFAT-GFP ASSAY: Raji (RAJI cells)
9694 (protein, Synthetic Polynucloetide) MALPVTALLLPLALLLHAARPDIVMTQSHKFMSTSVGDRVSIICKASQDVGTAVDWYQQKPGQSPKLLIYWASTRHTGVPDRFTGSGSGTDFTLAITNVQSEDLADYFCQQYNSYPLTFGAGTKLEIKRLEDLKNVFPPEVAVFEPSEAEISHTQKATLVCLATGFYPDHVELSWWVNGKEVHSGVCTDPQPLKEQPALNDSRYCLSSRLRVSATFWQNPRNHFRCQVQFYGLSENDEWTQDRAKPVTQIVSAEAWGRADCGFTSESYQQGVLSATILYEILLGKATLYAVLVSALVLMAMVKRKDSRGRAKRSGSGATNFSLLKQAGDVEENPGPTSMDWIWRILFLVGAATGAHSFEEVQLQQSGPELVKPGTSVRISCKTSGYTFTEYTIHWVKQSHGKSLEWIGNINPNNGGTTYNQKFEDKATLTVDKSSSTAYMELRSLTSEDSAVYYCAAGWNFDYWGQGTTLTVSSTRIQNPDPAVYQLRDSKSSDKSVCLFTDFDSQTNVSQSKDSDVYITDKCVLDMRSMDFKSNSAVAWSNKSDFACANAFNNSIIPEDTFFPSPESSCDVKLVEKSFETDTNLNFQNLSVIGFRILLLKVAGFNLLMTLRLWSS	effective control of tumor	improvement in survival	–	–	–	–	–	–
9763 (protein, Synthetic Polynucloetide) MALPVTALLLPLALLLHAARPDIQMTQSPSSLSASVGDRVTITCKASQDVGTAVDWYQQKPGKAPKLLIYWASTRHTGVPSRFSGSGSGTDFTLTISSLQPEDFATYYCQQYNSYPLTFGQGTKVEIKRLEDLKNVFPPEVAVFEPSEAEISHTQKATLVCLATGFYPDHVELSWWVNGKEVHSGVCTDPQPLKEQPALNDSRYCLSSRLRVSATFWQNPRNHFRCQVQFYGLSENDEWTQDRAKPVTQIVSAEAWGRADCGFTSESYQQGVLSATILYEILLGKATLYAVLVSALVLMAMVKRKDSRGRAKRSGSGATNFSLLKQAGDVEENPGPTSMDWIWRILFLVGAATGAHSFEEVQLVESGGGLVQPGGSLRLSCAASGYTFTEYTIHWVRQAPGKGLEWVANINPNNGGTTYNQKFEDRFTISRDNSKNTLYLQMNSLRAEDTAVYYCARGWNFDYWGQGTLVTVSSTRIQNPDPAVYQLRDSKSSDKSVCLFTDFDSQTNVSQSKDSDVYITDKCVLDMRSMDFKSNSAVAWSNKSDFACANAFNNSIIPEDTFFPSPESSCDVKLVEKSFETDTNLNFQNLSVIGFRILLLKVAGFNLLMTLRLWSS	effective control of tumor	improvement in survival	–	–	–	–	–	–
22225 (protein) MALPVTALLLPLALLLHAARPDIQMTQSPSSLSASVGDRVTITCKASDHINNWLAWYQQKPGQAPKLLIYGATTLETGVPSRFSGSGSGTDYTLTISSLQPEDFATYYCQQSWNTPWTFGQGTKLEIKRLEDLKNVFPPEVAVFEPSEAEISHTQKATLVCLATGFYPDHVELSWWVNGKEVHSGVCTDPQPLKEQPALNDSRYCLSSRLRVSATFWQNPRNHFRCQVQFYGLSENDEWTQDRAKPVTQIVSAEAWGRADCGFTSESYQQGVLSATILYEILLGKATLYAVLVSALVLMAMVKRKDSRGRAKRSGSGATNFSLLKQAGDVEENPGPTSATMDWIWRILFLVGAATGAHSGPEVQLVESGGGLVQAGGSLRLSCAASGRTFTMGWFRQAPGKEREFVAAISLSPTLAYYADSVKGRFTISRDNAKNTVVLQMNSLKPEDTALYYCAADRKSVMSIRPDYWGQGTQVTVSSGSGPLGIAGIFEQVQLQQPGAELVKPGASVKMSCKASGYAFSSYWINWMKQKPGQGLEWIGQIYPGDGDTNYNGKFKGRATLTADTSSSTAYMQLSSLTSEDSAVYFCARSITTVVGCAMDYWGQGTSVTVSSTRIQNPDPAVYQLRDSKSSDKSVCLFTDFDSQTNVSQSKDSDVYITDKCVLDMRSMDFKSNSAVAWSNKSDFACANAFNNSIIPEDTFFPSPESSCDVKLVEKSFETDTNLNFQNLSVIGFRILLLKVAGFNLLMTLRLWSSRAKRSGSGVKQTLNFDLLKLAGDVESNPGPSRGHMTEYKPTVRLATRDDVPRAVRTLAAAFADYPATRHTVDPDRHIERVTELQELFLTRVGLDIGKVWVADDGAAVAVWTTPESVEAGAVFAEIGPRMAELSGSRLAAQQQMEGLLAPHRPKEPAWFLATVGVSPDHQGKGLGSAVVLPGVEAAERAGVPAFLETSAPRNLPFYERLGFTVTADVEVPEGPRTWCMTRKPGA	–	–	3+ (refer to approximately 5%, 10%, 20%, 30%, 40% and 50% GFP positive cells)	2+ (refer to approximately 5%, 10%, 20%, 30%, 40% and 50% GFP positive cells)	3+ (refer to approximately 5%, 10%, 20%, 30%, 40% and 50% GFP positive cells)	4+ (refer to approximately 5%, 10%, 20%, 30%, 40% and 50% GFP positive cells)	5+ (refer to approximately 5%, 10%, 20%, 30%, 40% and 50% GFP positive cells)	–
22249 (protein) MALPVTALLLPLALLLHAARPDIQMTQSPSSLSASVGDRVTITCKASDHINNWLAWYQQKPGQAPKLLIYGATTLETGVPSRFSGSGSGTDYTLTISSLQPEDFATYYCQQSWNTPWTFGQGTKLEIKRLEDLKNVFPPEVAVFEPSEAEISHTQKATLVCLATGFYPDHVELSWWVNGKEVHSGVCTDPQPLKEQPALNDSRYCLSSRLRVSATFWQNPRNHFRCQVQFYGLSENDEWTQDRAKPVTQIVSAEAWGRADCGFTSESYQQGVLSATILYEILLGKATLYAVLVSALVLMAMVKRKDSRGRAKRSGSGATNFSLLKQAGDVEENPGPTSATMDWIWRILFLVGAATGAHSGPEVQLVESGGGLVQAGGSLRLSCAASGRTFTMGWFRQAPGKEREFVAAISLSPTLAYYADSVKGRFTISRDNAKNTVVLQMNSLKPEDTALYYCAADRKSVMSIRPDYWGQGTQVTVSSGSALRRLLGLFGFEQVQLQQPGAELVKPGASVKMSCKASGYAFSSYWINWMKQKPGQGLEWIGQIYPGDGDTNYNGKFKGRATLTADTSSSTAYMQLSSLTSEDSAVYFCARSITTVVGCAMDYWGQGTSVTVSSTRIQNPDPAVYQLRDSKSSDKSVCLFTDFDSQTNVSQSKDSDVYITDKCVLDMRSMDFKSNSAVAWSNKSDFACANAFNNSIIPEDTFFPSPESSCDVKLVEKSFETDTNLNFQNLSVIGFRILLLKVAGFNLLMTLRLWSSRAKRSGSGVKQTLNFDLLKLAGDVESNPGPSRGHMTEYKPTVRLATRDDVPRAVRTLAAAFADYPATRHTVDPDRHIERVTELQELFLTRVGLDIGKVWVADDGAAVAVWTTPESVEAGAVFAEIGPRMAELSGSRLAAQQQMEGLLAPHRPKEPAWFLATVGVSPDHQGKGLGSAVVLPGVEAAERAGVPAFLETSAPRNLPFYERLGFTVTADVEVPEGPRTWCMTRKPGA	–	–	2+ (refer to approximately 5%, 10%, 20%, 30%, 40% and 50% GFP positive cells)	+ (refer to approximately 5%, 10%, 20%, 30%, 40% and 50% GFP positive cells)	–	2+ (refer to approximately 5%, 10%, 20%, 30%, 40% and 50% GFP positive cells)	4+ (refer to approximately 5%, 10%, 20%, 30%, 40% and 50% GFP positive cells)	+ (refer to approximately 5%, 10%, 20%, 30%, 40% and 50% GFP positive cells)
22250 (protein) MALPVTALLLPLALLLHAARPDIQMTQSPSSLSASVGDRVTITCKASDHINNWLAWYQQKPGQAPKLLIYGATTLETGVPSRFSGSGSGTDYTLTISSLQPEDFATYYCQQSWNTPWTFGQGTKLEIKRLEDLKNVFPPEVAVFEPSEAEISHTQKATLVCLATGFYPDHVELSWWVNGKEVHSGVCTDPQPLKEQPALNDSRYCLSSRLRVSATFWQNPRNHFRCQVQFYGLSENDEWTQDRAKPVTQIVSAEAWGRADCGFTSESYQQGVLSATILYEILLGKATLYAVLVSALVLMAMVKRKDSRGRAKRSGSGATNFSLLKQAGDVEENPGPTSATMDWIWRILFLVGAATGAHSGPEVQLVESGGGLVQAGGSLRLSCAASGRTFTMGWFRQAPGKEREFVAAISLSPTLAYYADSVKGRFTISRDNAKNTVVLQMNSLKPEDTALYYCAADRKSVMSIRPDYWGQGTQVTVSSGSGPLGIAGIFEQVQLQQPGAELVKPGASVKMSCKASGYAFSSYWINWMKQKPGQGLEWIGQIYPGDGDTNYNGKFKGRATLTADTSSSTAYMQLSSLTSEDSAVYFCARSITTVVGCAMDYWGQGTSVTVSSTRIQNPDPAVYQLRDSKSSDKSVCLFTDFDSQTNVSQSKDSDVYITDKCVLDMRSMDFKSNSAVAWSNKSDFACANAFNNSIIPEDTFFPSPESSCDVKLVEKSFETDTNLNFQNLSVIGFRILLLKVAGFNLLMTLRLWSSRAKRSGSGVKQTLNFDLLKLAGDVESNPGPSRGHMTEYKPTVRLATRDDVPRAVRTLAAAFADYPATRHTVDPDRHIERVTELQELFLTRVGLDIGKVWVADDGAAVAVWTTPESVEAGAVFAEIGPRMAELSGSRLAAQQQMEGLLAPHRPKEPAWFLATVGVSPDHQGKGLGSAVVLPGVEAAERAGVPAFLETSAPRNLPFYERLGFTVTADVEVPEGPRTWCMTRKPGA	–	–	3+ (refer to approximately 5%, 10%, 20%, 30%, 40% and 50% GFP positive cells)	2+ (refer to approximately 5%, 10%, 20%, 30%, 40% and 50% GFP positive cells)	3+ (refer to approximately 5%, 10%, 20%, 30%, 40% and 50% GFP positive cells)	4+ (refer to approximately 5%, 10%, 20%, 30%, 40% and 50% GFP positive cells)	5+ (refer to approximately 5%, 10%, 20%, 30%, 40% and 50% GFP positive cells)	–
